Experimental data published in US20060193821, “Aptamers to the human IL-12 cytokine family and their use as autoimmune disease therapeutics” (published 2006).

What was measured:
[1] = target: IL-12 (human, p35/p40 heterodimer) (Homo sapiens, UniProt P29459;P29460 SEQ:57-253,SEQ:23-328); assay: filter; no significant binding
[2] = target: T1, IL-23 (human, p19/p40 heterodimer) (Homo sapiens, UniProt Q9NPF7;P29460 SEQ:20-189,SEQ:23-328); assay: filter; SHMCK, tRNA; conditions: tags: R&D Systems, carrier free
Description: Monitoring Progress of rRfY Selection. Dot blot binding assays were performed throughout the selections to monitor the protein binding affinity of the pools. Trace ³²P-labeled RNA was combined with a dilution series of h-IL-23 and incubated at room temperature for 30 minutes in 1×SHMCK (20 mM Hepes, 120 mM NaCl, 5 mM KCl, 1 mM MgCl₂, 1 mM CaCl₂, pH 7.4) plus 0.1 mg/mL tRNA for a final volume of 20 μL. The binding reactions were analyzed by nitrocellulose filtration using a Minifold I dot-blot, 96-well vacuum filtration manifold (Schleicher & Schuell, Keene, N.H.). A three-layer filtration medium was used, consisting (from top to bottom) of Protran nitrocellulose (Schleicher & Schuell), Hybond-P nylon (Amersham Biosciences) and GB002 gel blot paper (Schleicher & Schuell). RNA that is bound to protein is captured on the nitrocellulose filter, whereas the non-protein bound RNA is captured on the nylon filter. The gel blot paper was included simply as a supporting medium for the other filters. Following filtration, the filter layers were separated, dried and exposed on a phosphor screen (Amersham Biosciences, Piscataway, N.J.) and quantified using a Storm 860 Phosphorimager® blot imaging system (Amersham Biosciences).
When a significant positive ratio of binding of RNA in the presence of h-IL-23 versus in the absence of h-IL-23 was seen, the pools were cloned using a TOPO TA cloning kit (Invitrogen, Carlsbad, Calif.) according to the manufacturer's instructions. For the h-IL-23 and X-IL-23 selections, the Round 8 pool templates were cloned, and 32 individual clones from each selections were assayed in a 1-point dot blot screen (+/−75 nM h-IL-23, as well as a separate screen at +/−75 nM h-IL-12). For the PN-IL-23 selection, the Round 10 pool was cloned and sequenced, and 8 unique clones were assayed for protein binding in a 1-point dot blot screen (+/−200 nM h-IL-23 and a separate screen at +/−200 nM h-IL-12). Subsequently, the Round 10 PN-IL-23 pool was re-cloned for further sequences, as well as the R12 PN-IL-23 pool, and the clones were assayed for protein binding in a 1 point do blot screen (+/−100 nM h-IL-23 or +/−200 nM h-IL-12).

[3] = target: T1, IL-23 (human, p19/p40 heterodimer); assay: cell_activity; TransAM STAT3; conditions: tags: R&D Systems, carrier free
Description: In summary, the cell-based assay was conducted by isolating the peripheral blood mononuclear cells (PBMCs) from whole blood using a Histopaque gradient (Sigma, St. Louis, Mo.). The PBMCs were cultured for 3 to 5 days at 37° C./5% CO₂ in Peripheral Blood Medium (Sigma) which contains PHA, supplemented with IL-2 (100 units/mL) (R&D Systems, Minneapolis, Minn.), to generate PHA Blasts. To test IL-23 aptamers, the PHA Blasts were washed twice with 1×PBS, then serum starved for four hours in RPMI, 0.20% FBS. After serum starvation, approximately 2 million cells were aliquotted into appropriately labeled eppendorf tubes. hIL-23 at a final constant concentration of 3 ng/mL (R&D Systems, Minneapolis, Minn.) was combined with a dilution series of various IL-23 aptamers as described in Example 1, and the cytokine/aptamer mixture was added to the aliquotted cells in a final volume of 100 μl and incubated at 37° C. for 10-12 minutes. The incubation reaction was stopped by adding 1 mL of ice-cold PBS with 1.5 mM Na₃VO₄. Cell lysates were made using the lysis buffer provided by the TransAM™ STAT 3 assay following the manufacturer's instructions. FIG. 20 depicts a flow summary of the protocol used for the cell based assay.
Full length clones from the rRfY selection described in Example 1A, and select minimized rRfY clones that were described in Example 2A. 1, were tested using the TransAM™ STAT3 activation assay. Table 34 summarizes the cell based assay data for IL-23 full length aptamers generated from the rRfY selections described in Example 1A. 1, each compared to the activity of their respective parent (full length) clone.

T1 sequence (Q9NPF7 20-189, chain 1 of 2): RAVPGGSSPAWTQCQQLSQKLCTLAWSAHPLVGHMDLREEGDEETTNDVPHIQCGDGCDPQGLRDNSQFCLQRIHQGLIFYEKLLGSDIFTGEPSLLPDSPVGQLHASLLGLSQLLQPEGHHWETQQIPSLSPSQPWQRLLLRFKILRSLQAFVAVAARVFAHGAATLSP
T1 sequence (P29460 23-328, chain 2 of 2): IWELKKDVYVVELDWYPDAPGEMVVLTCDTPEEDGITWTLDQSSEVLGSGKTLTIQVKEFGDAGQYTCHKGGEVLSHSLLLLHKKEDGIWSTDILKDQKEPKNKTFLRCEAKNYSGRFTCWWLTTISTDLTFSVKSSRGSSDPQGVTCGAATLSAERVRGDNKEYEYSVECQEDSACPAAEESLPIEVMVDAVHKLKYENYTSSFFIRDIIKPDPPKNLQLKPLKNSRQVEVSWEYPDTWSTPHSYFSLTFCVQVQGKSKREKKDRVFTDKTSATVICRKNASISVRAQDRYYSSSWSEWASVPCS
Chain of IL-12 (human, p35/p40 heterodimer) (P29459 23-219, chain 1 of 2): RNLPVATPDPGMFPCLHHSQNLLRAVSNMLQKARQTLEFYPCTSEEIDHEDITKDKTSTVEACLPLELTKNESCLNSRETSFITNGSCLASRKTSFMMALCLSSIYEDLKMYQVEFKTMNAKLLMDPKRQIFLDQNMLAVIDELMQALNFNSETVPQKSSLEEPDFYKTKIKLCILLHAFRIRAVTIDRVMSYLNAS
Chain of IL-12 (human, p35/p40 heterodimer) (P29460 23-328, chain 2 of 2): as the sequence (P29460 23-328, chain 2 of 2) above

Row | Binder | binding result [1] | Kd [2] | IC50 [3]
1 | AMX84-E12 (ssRNA, 2'-F C,U) RNA: GGGAAAAGCGAAUCAUACACAAGAAGUUUUUGUGCUCUGAGUACUCAGCGUCCGUAAGGGAUAUGCUCCGCCAGAGACCAACCGAGAA | no binding | 27.8 nM | 
2 | AMX91-E3 (ssRNA, 2'-F C,U) RNA: GGGAAAAGCGAAUCAUACACAAGAUUACUCCGUUAGUGUCAGUUGACGGAGGGAGCGUACUAUUGCUCCGCCAGAGACCAACCGAGAA | no binding | 205 nM | 
3 | B10.min4 (ssRNA, 2'-F C,U) RNA: GGAGCAUACACAAGAAGUGCUUCAUGCGGCAAACUGCAUGACGUCGAAUAGAUAUGCUCC |  |  | 500 nM
4 | AMX91-G11 (ssRNA, 2'-F C,U) RNA: GGGAAAAGCGAAUCAUACACAAGACUUAACAGUGCGGGGCGCAGUGUAUAGAUCCGCAAUGUGUGCUCCGCCAGAGACCAACCGAGAA | no binding | 104 nM | 
5 | AMX84-A11 (ssRNA, 2'-F C,U) RNA: GGGAAAAGCGAAUCAUACACAAGAGAGGUAUGUGGUUUUGCGGAGCAACUCGUGUCAGCGGUCAGCUCCGCCAGAGACCAACCGAGAA | no binding | 17.8 nM | 
6 | AMX86-D8 (ssRNA, 2'-F C,U) RNA: GGGAAAAGCGAAUCAUACACAAGACAGAGGCAAUGAGAGCCUGGCGAUGUCAGUCGCAUCUUGCUGCUCCGCCAGAGACCAACCGAGAA | no binding | 294 nM | 
7 | AMX91-H3 (ssRNA, 2'-F C,U) RNA: GGGAAAAGCGAAUCAUACACAAGACAUUGUGCUUUAUCACGUGGGUGAUAACGACGAAAGUUAUGCUCCGCCAGAGACCAACCGAGAA | no binding | 266 nM | 50 nM
8 | AMX86-H7 (ssRNA, 2'-F C,U) RNA: GGGAAAAGCGAAUCAUACACAAGAGAUGACUACACGCCAGUGUGCGCUUUUUGCGGAGUUAGCGGCUCCGCCAGAGACCAACCGAGAA | no binding | 89.8 nM | 
9 | F11.min2 (ssRNA, 2'-F C,U) RNA: GGACAUACACAAGAUGUGCUUGAGUUAAAUCUCAUCGUCCCCGUUUGGGGAUAUGUC |  |  | 25 nM
10 | AMX86-F6 (ssRNA, 2'-F C,U) RNA: GGGAAAAGCGAAUCAUACACAAGAAUGUAUACAAUGCCCUAUCGUCAGUUAGGCAUGUGUGGAUGCUCCGCCAGAGACCAACCGAGAA | no binding | 69.1 nM | 
11 | AMX84-C10 (ssRNA, 2'-F C,U) RNA: GGGAAAAGCGAAUCAUACACAAGAGAUGUAUUCAGGCGGUCCGCAUUGAUGUCAGUUAUGCGUAGCUCCGCCAGAGACCAACCGAGAA | no binding | 94.3 nM | 250 nM
12 | AMX84-F11 (ssRNA, 2'-F C,U) RNA: GGGAAAAGCGAAUCAUACACAAGAUGUGCUUGAGUUAAAUCUCAUCGUCCCCGUUUGGGGAUAUGCUCCGCCAGAGACCAACCGAGAA |  |  | 250 nM
13 | AMX86-C8 (ssRNA, 2'-F C,U) RNA: GGGAAAAGCGAAUCAUACACAAGAGUCGUGAUGAUUUGGGUUAUGUCAGUUCCCUGUAUGGUUUCGCUCCGCCAGAGACCAACCGAGAA | no binding | 107 nM | 
14 | AMX91-H12 (ssRNA, 2'-F C,U) RNA: GGGAAAAGCGAAUCAUACACAAGACGUGUGCUUUAUGUAAACCAUAACGUUCCAUAAGGAAUAUGCUCCGCCAGAGACCAACCGAGAA | no binding | 60.8 nM | 
15 | AMX86-C7 (ssRNA, 2'-F C,U) RNA: GGGAAAAGCGAAUCAUACACAAGAUGCGCUAUGUUUGGCUGGGAAUUGUAGCAUUGCUCAAGUGGCUCCGCCAGAGACCAACCGAGAA | no binding | 140 nM | 
16 | AMX91-G7 (ssRNA, 2'-F C,U) RNA: GGGAAAAGCGAAUCAUACACAAGACAUGACUGCAUGCUUCGGGAGUAUCUCGGUCCCGACGUUCGCUCCGCCAGAGACCAACCGAGAA | no binding | 63.6 nM | 150 nM
17 | AMX91-A6 (ssRNA, 2'-F C,U) RNA: GGGAAAAGCGAAUCAUACACAAGAUUGGCAAUGUGACCUUCAACCCUUUUCCCGAUGAACAGUGGCUCCGCCAGAGACCAACCGAGAA | no binding | 60.3 nM | 
18 | GGAGUACGCCGAAAGGCGCUUCCGAAAGGACGUCCGUAAGGGAUACUCC (ssRNA, 2'-F C,U) [Type 1.5] |  |  | 80 nM
19 | AMX86-E6 (ssRNA, 2'-F C,U) RNA: GGGAAAAGCGAAUCAUACACAAGAUCGCAAAAGGAGUUUGUCUCUGCUCUCGGAGUGUGUCAGUGCUCCGCCAGAGACCAACCGAGAA | no binding | 51.3 nM | 
20 | AMX91-G1 (ssRNA, 2'-F C,U) RNA: GGGAAAAGCGAAUCAUACACAAGAUAUGUGCCUGGGAUGGACGACAUCCCCUGUCUAAGGAUAUGCUCCGCCAGAGACCAACCGAGAA | no binding | 82.3 nM | 
21 | A10.min5 (ssRNA, 2'-F C,U) RNA: GGAGCAUACACAAGAAGUUUUUUGUGCUCUGAGUACUCAGCGUCCGUAAGGGAUAUGCUCC |  |  | 300 nM
22 | AMX84-G11 (ssRNA, 2'-F C,U) RNA: GGGAAAAGCGAAUCAUACACAAGAGUGCUUCGUAUGUUGAAUACGACGUUCGCAGGACGAAUAUGCUCCGCCAGAGACCAACCGAGAA | no binding | 291 nM | 250 nM
23 | AMX86-G9 (ssRNA, 2'-F C,U) RNA: GGGAAAAGCGAAUCAUACACAAGAUCCCAGCGGUACGUGAGUCUGUUAAAGGCCACCUAAUGUCGCUCCGCCAGAGACCAACCGAGAA | no binding | 109 nM | 
24 | AMX91-B5 (ssRNA, 2'-F C,U) RNA: GGGAAAAGCGAAUCAUACACAAGACAGUGUAUGAGGAAGAUUACUUCCAUUCCUGAGCGGUUUUCGCUCCGCCAGAGACCAACCGAGAA | no binding | 148 nM | 
25 | AMX91-F11 (ssRNA, 2'-F C,U) RNA: GGGAAAAGCGAAUCAUACACAAGACGCGUCAGGUCCACGCUGAAAUUUAUUUUCGGCAGUGUAAGCUCCGCCAGAGACCAACCGAGAA | no binding | 202 nM | 
26 | AMX86-A9 (ssRNA, 2'-F C,U) RNA: GGGAAAAGCGAAUCAUACACAAGAUCUACGAUUGUUCAGGUUUUUUGUACUCAACUAAAGGCGAGCUCCGCCAGAGACCAACCGAGAA | no binding | 190 nM | 
